Laboratory results reported in the DeepSol protein solubility set.

assay: soluble on expression in E. coli; label from the status in PepcDB or PDB records

Soluble on expression in E. coli, soluble:
MSVFMDLNIINSSDKNRLKHIIETAAHLGYSTVAINYVVEPLQKKQEIPNPQSISDLFDKFPVVQGKSSPIKVLNRLTIVASDASHFRPTNEYKKFDLVAVYPKTEKLFHAACMTFDVDIICIAVTEKQPFHFKRAPVNGAIDRGIFFETCYAAAIRDSITRRYTIANAICLMEICKGKNVIVSSGAERQLELRGPYDIANLGLVFSLSEGDAKAAVSTNCRSVLLHGETRATASGVIHTMKKPQILQKEEEETPAAKKARTELA
MSWQTYVDDHLMCDIDGHRLTAAAIIGHDGSVWAQSSSFPQFKSDEVAAVMKDFDEPGSLAPTGLHLGGTKYMVIQGEPGAVIRGKKGSGGITVKRTGQALIIGIYDEPLTPGQCNMIVERLGDYLLDQGL
MSYPATRAEQVVDTLHGVQVADPYRWLEDEKAPEVQTWMTAQNAHAREALAKFPGREALAARFKELFYTDSVSTPSRRNGRFFYVRTHKDKEKAILYWRQGESGQEKVLLDPNGWSKDGTVSLGTWAVSWDGKKVAFAQKPNAADEAVLHVIDVDSGEWSKVDVIEGGKYATPKWTPDSKGFYYEWLPTDPSIKVDERPGYTTIRYHTLGTEPSKDTVVHERTGDPTTFLQSDLSRDGKYLFVYILRGWSENDVYWKRPGEKDFRLLVKGVGAKYEVHAWKDRFYVLTDEGAPRQRVFEVDPAKPARASWKEIVPEDSSASLLSVSIVGGHLSLEYLKDATSEVRVATLKGKPVRTVQLPGVGAASNLMGLEDLDDAYYVFTSFTTPRQIYKTSVSTGKSELWAKVDVPMNPEQYQVEQVFYASKDGTKVPMFVVHRKDLKRDGNAPTLLYGYGGFNVNMEANFRSSILPWLDAGGVYAVANLRGGGEYGKAWHDAGRLDKKQNVFDDFHAAAEYLVQQKYTQPKRLAIYGGSNGGLLVGAAMTQRPELYGAVVCAVPLLDMVRYHLFGSGRTWIPEYGTAEKPEDFKTLHAYSPYHHVRPDVRYPALLMMAADHDDRVDPMHARKFVAAVQNSPGNPATALLRIEANAGHGGADQVAKAIESSVDLYSFLFQVLDVQGAQGGVAAQGRHHHHHH
MSYPMTPVKRPTISHGIQASDGIIKRPIEGNKKRLSAPIKDKPEHRIAPEEITNAPTTSRLRRAPEFDVVVIMKTTKKDRKKIIQTPRRRSIKLANVPMTPKTAPIRRHSTGGNAAMSTPKRRKSFGSLAPVRQHRVETRKVVRNLMAVRPPLCF

Soluble on expression in E. coli, not soluble:
MSVFSLKIDIADNKFFNGETSPLFSQSQAKLARQFHQKIAGYRPTPLCALDDLANLFGVKKILVKDESKRFGLNAFKMLGGAYAIAQLLCEKYHLDIETLSFEHLKNAIGEKMTFATTTDGNHGRGVAWAAQQLGQNAVIYMPKGSAQERVDAILNLGAECIVTDMNYDDTVRLTMQHAQQHGWEVVQDTAWEGYTKIPTWIMQGYATLADEAVEQMREMGVTPTHVLLQAGVGAMAGGVLGYLVDVYSPQNLHSIIVEPDKADCIYRSGVKGDIVNVGGDMATIMAGLACGEPNPLGWEILRNCATQFISCQDSVAALGMRVLGNPYGNDPRIISGESGAVGLGVLAAVHYHPQRQSLMEKLALNKDAVVLVISTEGDTDVKHYREVVWEGKHAVAP
MSVITPTSSIAANDHRAQFLGLLDTSLSQNSLIKLVLAKYVGSEADLQRIIIKPLTVKEQPCLSFVYRYKTRDITKNFPLAEAVAVIASLIPESFKNAHLLSLSDEVQLEYSKKGKTTLFKSKAQQEREAPSAGHDREKKRYLELSRPFLADLGVTNRQHELIPAMSRKWKQINKFIEVFSHALSSSSLKLDQPIKVADFGSGKGYLTFAIHDYLCNTLQAQGQVTGVELREDMVTLCNNAAAGLEHPGLTFQHGDVRSVAPRALDVMIALHACDIATDYAIHMGIRSGASIIMCSPCCHKQIRLQIQSPSLLKPMLQYGLHMGQQAEMVTDSLRALLLDACGYETKVFEFISLEHTNKNKMILAVKRAEPANPAQLLVRIQELKAFYGISEQCLETLLQADGFLG
MSVKVIVTDMDGTFLNDAKTYNQPRFMAQYQELKKRGIKFVVASGNQYYQLISFFPELKDEISFVAENGALVYEHGKQLFHGELTRHESRIVIGELLKDKQLNFVACGLQSAYVSENAPEAFVALMAKHYHRLKPVKDYQEIDDVLFKFSLNLPDEQIPLVIDKLHIALDGIMKPVTSGFGFIDLIIPGLHKANGISRLLKRWDLSPQNVVAIGDSGNDAEMLKMARYSFAMGNAAENIKQIARYATDDNNHEGALNVIQAVLDNTSPFNS
MSVNNIDQLLGELKSAAALASGKQAPAAQQTPQVDFSDVLKSTIEQVNSAQQTSEEMQKQFQLGDNKEVNLQDVMMSLQKASLSFQTMVQARNKLVSAYQEIMNTQV
MSVVEEATDDALYPIAVLIDELRNEDVTLRLNSIRKLSTIALALGVERTRNELIQFLTDTIYDEDEVLLVLAEQLGNFTPLVGGPDHVHCLLLPLENLATVEETVVRDKAVESLRKIADKHSSASLEEHFVPMLRRLATGDWFTSRTSACGLFSVVYPRVSPAIKSELKSMFRTLCRDDTPMVRRAAAAKLGEFAKVFEKTAVIEGLHSSLTDLHVDEQDSVRLLTVESAIAFGTLLDKANKKKLIEPILIELFDDKSWRVRYMVAEKLIEIQNVLGEDMDTTHLVNMYTNLLKDPEGEVRCAATQRLQEFALNLPEDKRQNIICNSLLNVAKELVTDGNQLVKSELAGVIMGLAPLIGKEQTVSELLPIYMQLLNDQTPEVRLNIISSLDKVNEVIGAAQLSTSLLPAIVGLAEDGKWRVRLAIVQFMPLLASQLGQEFFDEKLLPLCLNWLTDHVFSIREASTLIMKELTQKFGGQWASTNIVPKMQKLQKDTNYLQRMTCLFCLNTLSEAMTQEQILKEIMPIVKDLVEDDVPNVRFNAAKSLKRIGKNLTPSTLTSEVKPLLEKLGKDSDFDVRYFSEEAKNSLGL
MSWQQRVDDALTARRVTDTLRRRYVVSQGAGRWLVANGRQYLNFSSNDYLGLSQHPQIIRAWQQAATRFGVGSGGSGHISGYSVAHQALEEELAQWLGYPRALLFISGFAANQAVITALMKKNDRIVADRLSHASLLEAANLSPAQLRRFIHNDTQHLSRLLQSPCVGQQLVVTEGVYSMDGDSAPLAEIQHIARRHHAWLLVDDAHGIGVTGDEGRGTCWLRGVKPELLVVTFGKGFGVSGAAVLCSESVADYLLQFARHLVYSTSMPPAQAQALSASLAVIRSDEGGERREKLAALVQRFRAGVNASRFTLLNAHSAIQPLIVGDNSRALRLAEALRQQGCWATAIRPPTVPVGTARLRLTLTQAHEACDIDRLLEVLHGAGE
MSWRYSILTVDGSFKIFIPWEIFLTWNFLSAAWLNSTESNTYIHYSTCWGTSDYTLNISVIEATTEKLVDTRLLTTLENATAWINSNSIDEDEDDMPHATNVADRLDGLSLSKRVYSICHYEF
MSYDVIVRNGLWFDGTGRPPQVRTLGIRDGVVATVSAKPLDETGCPEVIDAGGKWVVPGFIDVHTHYDAEVLLDPGLRESVRHGVTTVLLGMCSLSTVYSDAEDAADLFSRVEAVPRQFVLGALESRKTWSNPAEYVAAIDALPLGPNIASLLGHSDLRASVLGLDRATTRGVVPTDDELETMADRLDAALDAGMLGMSGMDAAIDKLDGDRFRSRALPSTFATWRERRRLIKVLRKRGRILQSAPNVAKAQEALNFFLESSSLFGRRRGVRMSLLVSADAKSSPGAARVIGMGTRLLNKTLDAKVRFQHLPVPFELYSDGIDLPVFEEFGAGTAALHLRDQLERNKLLADPEYRRRFRRSFDRRKLGPTLWHRDFHDATIVECPDESLIGKTFGRIADERGIHPLDAFLDVLVDNGEKNVRWTTIVANHRPKVLDQLANDPAVHMGFSDAGAHLRNMAFYNYPLRLLKRVRDAQLSGRPFLTTERAVYRLTAEVADWFGVDAGTLREGDRADFVVIDPNCLNSDVDAYHEETVPFYGGLSRMVNRNDDAVVATAVNGTVVFGKGEFRDGYGDTVKSGRYLRAGADSRLKTAVLEHHHHHH
MSYGPQLPAFLMKGQIKENEVDDEAEEGAPQVYGPVIPGMEEPKNEKEKHDDQEETSVFGPSIPKEVREKLQNVENPAEDDEEDEEFPSQSYGPSIPSNFRPTVGPSIPGTFGDDSDEDIGPMPVAKGDEEKEAIDRAYRMVLQKEAEDDEKNFQPKREEWMTSVPKKLGNFGLGARTFKKGTTSERDASWEDAPGAKKRRNEETRSARSVGIAAADARQAAIVAEKTSGPSLLEIHQKKRDEKVKDAGYAQGERRPFDREKDMEVRGLKPGGSKEAVDRMKEFADRFANSKDQRFL
